Test results from patent publication US20170368132A1 (published 2017).
Changes are numbered by the printed parent chain.

What was measured:
[1] = target: T1, S. cerevisiae Rad51 (1-278) + H. sapiens Rad51 (218-339) (S. cerevisiae; H. sapiens, UniProt P25454 1-278); test: yeast two-hybrid, RAD51 hybrid construct
T1 construct: range 1-278; Y2H fusion in yeast; also called cerevisiae-sapiens hybrid construct of RAD51
T1 sequence: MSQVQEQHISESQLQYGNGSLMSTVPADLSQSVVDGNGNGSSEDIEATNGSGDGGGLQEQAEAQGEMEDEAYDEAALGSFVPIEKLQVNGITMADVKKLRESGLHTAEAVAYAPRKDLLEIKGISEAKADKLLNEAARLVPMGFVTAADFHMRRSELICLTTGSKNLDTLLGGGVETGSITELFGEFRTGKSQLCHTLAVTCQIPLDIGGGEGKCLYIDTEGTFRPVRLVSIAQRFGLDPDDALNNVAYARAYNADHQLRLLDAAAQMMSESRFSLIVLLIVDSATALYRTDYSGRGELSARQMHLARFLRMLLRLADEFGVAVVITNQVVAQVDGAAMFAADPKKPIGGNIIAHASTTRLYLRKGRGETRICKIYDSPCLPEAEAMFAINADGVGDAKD

[2] = target: T2, Rad51 (S208L; A209E; M210A) (human, UniProt Q06609 1-339); test: yeast two-hybrid, human RAD51 mutant
T2 construct: Human RAD51 mutant tested by Y2H; also called human RAD51 S208L A209E M210A
T2 chain: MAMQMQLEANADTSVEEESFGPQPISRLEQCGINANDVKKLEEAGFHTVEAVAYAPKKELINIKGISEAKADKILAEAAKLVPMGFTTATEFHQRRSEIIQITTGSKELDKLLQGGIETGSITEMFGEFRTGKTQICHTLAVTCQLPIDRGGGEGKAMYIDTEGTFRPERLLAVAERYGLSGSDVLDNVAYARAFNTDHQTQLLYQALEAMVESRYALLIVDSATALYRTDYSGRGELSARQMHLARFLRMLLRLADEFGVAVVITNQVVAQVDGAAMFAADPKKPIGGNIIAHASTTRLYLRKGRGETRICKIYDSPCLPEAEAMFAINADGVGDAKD
Description: (§1) The ability of peptides to bind human RAD51 with various mutations was then tested by Y2H assay. […] While mutations affecting BRCA2 binding had no effect on peptide binding, mutations that affected RAD51-AP1 binding did disrupt peptide binding. As these mutations were at residues 202, 205, and 206, they were consistent with the previous fusion data showing binding somewhere in the 190-218 region, and indicated the peptide SEQ ID NO.:5 contacts at least residues 202, 205, and 206 of RAD51.

[3] = target: T3, Rad51 (A190L; A192L) (human, UniProt Q06609 1-339); test: yeast two-hybrid, human RAD51 mutant
T3 construct: Human RAD51 mutant tested by Y2H; also called human RAD51 A190L A192L
T3 chain: T2 chain with A190L, A192L, L208S, E209A, A210M
Description: as §1

[4] = target: T4, Rad51 (F86E; A89E) (human, UniProt Q06609 1-339); test: yeast two-hybrid, human RAD51 mutant
T4 construct: Human RAD51 mutant tested by Y2H; also called human RAD51 F86E A89E
T4 chain: T2 chain with F86E, A89E, L208S, E209A, A210M
Description: as §1

[5] = target: T5, Rad51 (S208E; A209D) (human, UniProt Q06609 1-339); test: yeast two-hybrid, human RAD51 mutant
T5 construct: Human RAD51 mutant tested by Y2H; also called human RAD51 S208E A209D
T5 chain: T2 chain with L208E, E209D, A210M
Description: as §1

[6] = target: T6, Rad51 (Q202R, Y205D, Q206A) (human, UniProt Q06609 1-339); test: yeast two-hybrid, human RAD51 mutant
T6 construct: Human RAD51 mutant tested by Y2H; also called human RAD51 Q202R Y205D Q206A
T6 chain: T2 chain with Q202R, Y205D, Q206A, L208S, E209A, A210M
Description: as §1

## KRRRRRRRKRLGVRLRVSRML [compound 5 peptide sequence (SEQ ID NO.:5)]
[1]
  binding result: no binding
[2]
  binding result: binds
[3]
  binding result: binds
[4]
  binding result: binds
[5]
  binding result: binds
[6]
  binding result: no binding
